According to paper PMC6475865:

Key:
[1] = tested on: Integrase IN_A (HIV-1 subtype A strain FSU-A); assay: DRaCALA (nitrocellulose); conditions: 20 mM HEPES pH 7.2, 10 mM DTT, 7.5 mM MgCl2, 25 C; DRaCALA: 5 nM DNA, 0-500 nM IN, 20 min
[2] = tested on: Integrase IN_CRF consensus (HIV-1 CRF63_02A1 (consensus of Siberian/Ural isolates)); assay: DRaCALA (nitrocellulose); conditions: 20 mM HEPES pH 7.2, 10 mM DTT, 7.5 mM MgCl2, 25 C; DRaCALA: 5 nM DNA, 0-500 nM IN, 20 min

## GTGTGGAAAATCTCTAGCAGT (double strand) [U5B/U5A duplex]
[1]
  Kd: 25 nM
[2]
  Kd: 23 nM
